Reference: US20240076406A1 (NATIONAL RESEARCH COUNCIL OF CANADA, published 2024)

Columns and labels:
[1] = molecular target: T1, human CA-XIV (human, UniProt Q9ULX7 16-290, limits assumed); test: ELISA on purified protein, binding above background
T1 construct: also called carbonic anhydrase XIV

[2] = molecular target: T2, human CA-IV (human, UniProt P22748 19-283, limits assumed); test: as above
T2 construct: also called carbonic anhydrase IV

[3] = molecular target: T3, human CA-XII (human, UniProt O43570 25-291, limits assumed); test: as above
T3 construct: also called carbonic anhydrase XII

[4] = molecular target: human CA-II (human, UniProt P00918 1-260); test: as above
[5] = molecular target: T4, mouse CA-IX (mouse, UniProt Q8VHB5 32-390, limits assumed); test: as above
[6] = molecular target: T5, hCA-IX ECD dimer (dimeric extracellular domain of hCA-IX) (human, UniProt Q16790 38-414); test: cell-based or functional assay
[7] = molecular target: T5, hCA-IX ECD dimer (dimeric extracellular …); test: SPR; CA-IX immobilized on SA sensor chip, VHH injected
Description: (§1) In vitro binding affinity/SPR. To evaluate the binding affinity (KD) of the VHH only format of the 4 single domain antibodies, CA-IX monomer and dimer were immobilized on SA sensor chip (GE Healthcare) and serial dilutions of the sdAbs were injected over the surface (FIG. 3A).

[8] = molecular target: hCA-IX-ECD monomeric (monomeric parental CA-IX extracellular domain) (human, UniProt Q16790 38-414); test: as above
Description: as §1

[9] = molecular target: T4, mouse CA-IX; test: ELISA on purified protein, 500 nM VHH, binding above background
Description: Cross reactivity and CA-IX specificity. Binding specificity and species cross reactivity of two sdAb were tested in an ELISA assay using purified proteins for human, mouse, cynomolgus monkey and dog CA-IX.

T3 sequence (O43570 25-291 limits assumed): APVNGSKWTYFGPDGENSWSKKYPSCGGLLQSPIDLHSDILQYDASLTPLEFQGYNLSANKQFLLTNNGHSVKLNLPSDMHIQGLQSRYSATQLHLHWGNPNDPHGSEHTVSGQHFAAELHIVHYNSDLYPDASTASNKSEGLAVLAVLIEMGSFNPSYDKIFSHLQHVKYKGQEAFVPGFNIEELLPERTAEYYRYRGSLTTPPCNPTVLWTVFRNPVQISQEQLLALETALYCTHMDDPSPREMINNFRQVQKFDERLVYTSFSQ
T2 sequence (P22748 19-283 limits assumed): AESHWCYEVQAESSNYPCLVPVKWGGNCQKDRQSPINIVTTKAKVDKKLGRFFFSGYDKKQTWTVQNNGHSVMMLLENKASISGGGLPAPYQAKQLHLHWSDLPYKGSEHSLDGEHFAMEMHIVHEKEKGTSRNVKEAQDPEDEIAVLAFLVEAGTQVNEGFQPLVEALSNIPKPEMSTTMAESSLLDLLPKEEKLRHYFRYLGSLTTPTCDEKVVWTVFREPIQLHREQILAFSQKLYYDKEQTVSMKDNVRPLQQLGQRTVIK
T4 sequence (Q8VHB5 32-390 limits assumed): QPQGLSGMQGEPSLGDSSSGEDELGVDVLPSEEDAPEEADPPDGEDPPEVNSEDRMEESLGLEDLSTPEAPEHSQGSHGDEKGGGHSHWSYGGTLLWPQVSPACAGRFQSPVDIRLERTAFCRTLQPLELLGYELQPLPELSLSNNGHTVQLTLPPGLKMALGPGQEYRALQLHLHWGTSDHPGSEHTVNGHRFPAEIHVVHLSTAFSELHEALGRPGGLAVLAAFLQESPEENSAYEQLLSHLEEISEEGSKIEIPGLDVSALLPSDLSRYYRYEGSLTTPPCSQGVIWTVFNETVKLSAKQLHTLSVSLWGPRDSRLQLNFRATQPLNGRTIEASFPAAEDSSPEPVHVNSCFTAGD
T1 sequence (Q9ULX7 16-290 limits assumed): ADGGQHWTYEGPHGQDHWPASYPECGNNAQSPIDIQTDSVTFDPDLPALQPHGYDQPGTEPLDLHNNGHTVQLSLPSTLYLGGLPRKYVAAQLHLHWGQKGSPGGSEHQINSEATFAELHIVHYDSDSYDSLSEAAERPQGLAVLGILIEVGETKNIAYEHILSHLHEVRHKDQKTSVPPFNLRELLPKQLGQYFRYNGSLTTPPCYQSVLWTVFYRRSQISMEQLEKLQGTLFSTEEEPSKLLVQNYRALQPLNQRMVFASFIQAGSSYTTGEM

binding result [1]	binding result [2]	binding result [3]	binding result [4]	binding result [5]	IC50 (hCA-IX in vitro enzyme activity, 4Mu-Ac hydrolysis) [6]	logIC50 (hCA-IX in vitro enzyme activity, 4Mu-Ac hydrolysis) [6]	Kd [7] [nM]	Kd [8] [nM]	binding result [9]	Binder
no binding (tested: 500 nM)	no binding (tested: 500 nM)	no binding (tested: 500 nM)	no binding (tested: 500 nM)	no binding (tested: 500 nM)	0.0484 µM (unit not printed; the text gives the values in nM)	-1.13 log10 of IC50 (IC50 in µM; unit not printed)	176	234		sdCA9-2-VHH (VHH, Llama VHH expressed in E. coli from the pSJF2 vector and purified by IMAC) VHH: QVKLEESGGDLVQPGGSLRLSCAASGFTLDYYAIGWFRQAPGKEREGVSCFSSVDGSTYYADSVKGRFTISRDNAKNMVYLQMNSLKPEDTAIYYCAAELYGELGVATVQAMCRLTTPGGDYWGQGTQVTVSS
							341	314		sdCA9-3-VHH (VHH, Llama VHH expressed in E. coli from the pSJF2 vector and purified by IMAC; also called sdCA9-3-VHH-VHH) VHH: QVQLVESGGGLVQAGDSLRLSCAASGGTFSRYGMGWFRQAPGKEREFVAAISGTGLNTYYMDSVKGRFTISRDNAENTVYLQMNSLKPEDTAVYYCARDRGGVEYDYWGQGTQVTVSS
no binding (tested: 500 nM)	no binding (tested: 500 nM)	no binding (tested: 500 nM)	no binding (tested: 500 nM)		0.111 µM (unit not printed; the text gives the values in nM)	-0.954 log10 of IC50 (IC50 in µM; unit not printed)	37	28.9	binds	sdCA9-1-VHH (VHH, Llama VHH expressed in E. coli from the pSJF2 vector and purified by IMAC) VHH: QVQLVESGGGLVQAGGSLRLSCAASGFTFDDWAIGWFRQAPGKEREGVSCISKRHGTTHYADSVKGRFTISSDNAKNTVYLRMNGLKPEDTAVYYCAASSWGSCTVATMRDVDRYDYDYWGQGTQVTVSS
